Here are results for 2 molecules from publication PMC4027167, “The histone chaperones Vps75 and Nap1 form ring-like, tetrameric structures in solution” (Nucleic Acids Research, 2014).

Data set [1] concerns the molecule itself. In words: SEC-MALS; run at 500 mM NaCl after disulphide cross-linking via K78C at 150 mM NaCl.
For a further data set, the target named is T1, Rtt109 (UniProt Q07794 1-436).
T1 construct: expressed from a pET28a-derived vector, a gift from Paul Kaufman; also called histone acetyltransferase Rtt109
T1 sequence: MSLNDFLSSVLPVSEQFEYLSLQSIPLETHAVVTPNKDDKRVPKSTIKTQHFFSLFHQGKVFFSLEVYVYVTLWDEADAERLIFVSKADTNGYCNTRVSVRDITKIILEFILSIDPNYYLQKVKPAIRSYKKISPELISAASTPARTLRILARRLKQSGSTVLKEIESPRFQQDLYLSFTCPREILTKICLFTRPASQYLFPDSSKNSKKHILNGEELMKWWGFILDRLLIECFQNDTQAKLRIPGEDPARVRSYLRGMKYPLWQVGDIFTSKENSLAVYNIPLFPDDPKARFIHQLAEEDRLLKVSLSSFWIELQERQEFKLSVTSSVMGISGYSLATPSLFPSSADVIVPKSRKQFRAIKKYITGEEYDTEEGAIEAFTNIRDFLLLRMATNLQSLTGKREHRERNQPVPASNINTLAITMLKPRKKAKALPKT
Briefly: PELDOR; 100 μM Vps75 Y35RX2 dimer with Rtt109 at ratios 2:0, 2:0.25, 2:0.5 and 2:1 (Vps75:Rtt109). The note with it: both partners purified.

Data set [2] deals with the molecule itself. The description is as above.

Positions count from the first letter of the chain named. Numbers in names are those of the source.

B1: Vps75 K78C (natural protein, budding yeast, UniProt P53853 1-264, looked up)
chain: MMSDQENENEHAKAFLGLAKAEEEVDAIEREVELYRLNKMKPVYEKRDAYIDEIAEFWKIVLSQHVSFANYIRASDFCYIDTIDKIKVEWLALESEMYDTRDFSITFHFHGIEGDFKEQQVTKVFQIKKGKDDQEDGILTSEPVPIEWPQSYDSINPDLIKDKRSPEGKKKYRQGMKTIFGWFRWTGLKPGKEFPHGDSLASLFSEEIYPFAVKYYAEAQRDLEDEEGESGLSADGDSEDDDGSLGEVDLPLSDEEPSSKKRKV
modifications: disulphide between cysteine 78 of opposing dimers after oxidation with Cu (II) phenanthroline
notes: Vps75 of budding yeast, point mutant in the C21A/C212A construct
What is called stoichiometry N is a count of units in the complex or per binding partner. As for B1, the “stoichiometry N” value in data set [1] was 4.

B2: Vps75 Y35RX2 (natural protein, budding yeast, UniProt P53853 1-264, looked up)
chain: B1 chain with Y35C, C78K
modifications: 3,4-Bis-MTSL crosslinking spin label (RX2) joining cysteine 35 of the two chains of the dimer; deuterated protein
notes: Vps75 of budding yeast, open reading frame, unique cysteine at position 35; One spin label for each dimer; also called singly labelled Vps75 Y35RX2 dimer; not shown: His6, N-terminal, cleaved
Turning to B2, the binding result (with Rtt109; in data set [2]) was “binds” in each case.
